Reference: patent US20160002344A1 (ONCOMED PHARMACEUTICALS, published 2016)

What was measured:
[1] = molecular target: T1, recombinant human RSPO1-Fc fusion protein (human, UniProt Q2MKA7 21-263); test: SPR (Biacore 2000), RSPO1-Fc immobilized on CM5 chip, antibody injected 100 nM to 0.78 nM
T1 construct: not shown: human Fc region
Protocol: (§1) The KD of h89M5-H2L2 was determined using a Biacore 2000 system from Biacore LifeSciences (GE Healthcare). Recombinant human RSPO1-Fc or mouse RSPO1-Fc proteins were immobilized on CM5 chips using standard amine-based chemistry (NHS/EDC). The antibodies were serially diluted 2-fold from 100 nM to 0.78 nM in HBS-P (0.01M HEPES pH7.4, 0.15M NaCl, 0.005% v/v Surfactant P20) and were injected over the chip surface. Kinetic data were collected over time and were fit using the simultaneous global fit equation to yield affinity constants (KD values) for each antibody.

[2] = molecular target: T2, recombinant mouse RSPO1-Fc protein (mouse, UniProt Q9Z132 21-265, limits assumed); test: as above
T2 construct: Construct not described; not shown: Fc; not described
T2 sequence (Q9Z132 21-265 limits assumed): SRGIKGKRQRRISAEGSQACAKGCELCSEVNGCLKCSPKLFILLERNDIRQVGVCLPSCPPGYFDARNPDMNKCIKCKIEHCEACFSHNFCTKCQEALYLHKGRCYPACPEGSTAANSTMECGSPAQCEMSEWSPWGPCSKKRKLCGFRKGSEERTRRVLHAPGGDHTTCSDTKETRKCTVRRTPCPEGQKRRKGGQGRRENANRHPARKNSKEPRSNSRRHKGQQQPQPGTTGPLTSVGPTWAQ
Protocol: as §1

T1 sequence (Q2MKA7 21-263): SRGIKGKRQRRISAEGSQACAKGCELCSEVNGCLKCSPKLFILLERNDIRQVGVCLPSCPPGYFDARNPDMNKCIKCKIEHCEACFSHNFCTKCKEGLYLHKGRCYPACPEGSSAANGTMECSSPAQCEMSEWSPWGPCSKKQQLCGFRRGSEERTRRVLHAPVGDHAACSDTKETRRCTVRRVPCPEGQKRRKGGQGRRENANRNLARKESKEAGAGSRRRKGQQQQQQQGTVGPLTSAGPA

Kd [1]: < 100 pM
Kd [2]: < 100 pM
B1: humanized anti-RSPO1 antibody h89M5-H2L2 (antibody, human IgG2, kappa, V domains shown)
VH: QVQLVQSGAEVKKPGASVKVSCKTSGYTFTGYTMHWVRQAPGQRLEWMGGINPNNGGTTYNQNFKGRVTITRDTSASTAYMELSSLRSEDTAVYYCARKEFSDGYYFFAYWGQGTLVTVSS
VL: DIQMTQSPSSLSASVGDRVTITCKASQDVIFAVAWYQQKPGKAPKLLIYWASTRHTGVPSRFSGSGSGTDYTLTISSLQPEDFATYYCQQHYSTPWTFGGGTKVEIKR
notes: also called humanized 89M5; 89M5-H2 with 89M5-L2
